From a protein production outcome set (Wang et al. 2014)

Experiment: label from the status in PepcDB records

Protein production, failed:
MENVKKCKNFLSTLIKLASSGKQSTETAANVKELVQNLLDGKIEAEDFTSRLYRELNSSPQPYLVPFLKRSLPALRQLTPDSAAFI
MEPANMTVAEYLNYWLDTYPKNNVAPSTYRRYTEFAAHIKTHIGGIMMPKLKPAHIQSFYSSLLEKNLSKSTVLKIHRMLHLALKHAVNWQIIISNPTDAVTLEHHHHHH
MEPISARSMISAAATEAVVASGDGAPRVERRKRLSPAALAVANQKVPPAFSPIVIAGSVRLADFLVIAAVGIALYFALVVRRDGFAWEYIAAILGTTATAVVAFQAADLYEVQLFRGTLKQMTRIISTWSIVFLLFIGASFFAKLGGEVSRLWLGSFFFAGLALLIIERLSVRALVRRWASQGRLDRRTVIVGADANGAKLIEALKAEHADASDIRILGVFDDRNDARSQSTCAGVPKLGKVDDIPEFARRTRVDLVLFALPISAETRILDMLKKLWVLPVDIRLSAHTNKLRFRPRAYSYVGKVPTLDVFEAPITDWDQVIKQVFDRVVGGFILLLAAPVMALVALAIKLDSPGPVLFRQKRFGFNNERIDVLKFRSMYHDQADPTASKVVTRNDPRVTRVGRFIRRTSLDELPQLFNVVFKGNLSLVGPRPHAVQGKLQSQLFDEAVDGYFARHRVKPGITGWAQINGWRGEIDNEEKIQKRVEFDLYYIENWSVLFDLYILLRTPWALLKGENAY
MEPLGNRRPCSVCITKNRNCPRFCEYAEYFPYELQSQYESANELFGTPNIITMMQHAPEEKKQMLATSIIMEGNAWTEDPISGGFGMIQKLMWKIMLHKAYLRELQEKIKEEKEKKPASSLY
MEPLTALAQSLGLAFASGISAYAAAAFVGLAGHLGWIGPLPGALGVLTDPWVFGTAGALALVEALAMLVPGIATAWEAIHTAIRPFAAAALAVLATWGEPRLAVVAALLGGALGLATHATKLGLRATIDTSPEPVTNAAATTGELGVVAALAWAIWAHPWIALAAALVLLTALLYVVRALWRTVARAIAALFSPPTAPGS
MEPQEEFITTEEVEQEIVPTVEVEQDVPVDIEGENDDDDEMMNDDEEALEVDMSNNSLTYFDKHTDSVFAIGHHPNLPLVCTGGGDNLAHLWTSHSQPPKFAGTLTGYGESVISCSFTSEGGFLVTADMSGKVLVHMGQKGGAQWKLASQMQEVEEIVWLKTHPTIARTFAFGATDGSVWCYQINEQDGSLEQLMSGFVHQQDCSMGEFINTDKGENTLELVTCSLDSTIVAWNCFTGQQLFKITQAEIKGLEAPWISLSLAPETLTKGNSGVVACGSNNGLLAVINCNNGGAILHLSTVIELKPEQDELDASIESISWSSKFSLMAIGLVCGEILLYDTSAWRVRHKFVLEDSVTKLMFDNDDLFASCINGKVYQFNARTGQEKFVCVGHNMGVLDFILLHPVANTGTEQKRKVITAGDEGVSLVFEVPN
MEPTGLMVAAPTASLPEAIGGERNWDYRFTWIRDTAYVIEALSSIGYKYEATEFLYDMMDMITRDNRIRTIYSIDDSNDLEERIIDYEGYRGSRPVRIGNKAVDQLQIDQYGSIVRAIHSMAKAGGIVNSYLWDFVEQVMAKIEYLWKYPDSSIWEFRTEPKQYVYSKVMSWAAFDSAISMAKDLGLSAPIKQWKSIQDEIKKEVLEKGFDTDTNSFVQYYGSKNIDAALLRLPILGFIPANDEKFLGTLSRIEKELMVDGYLFKRYREDDGLKGDEGSFLMLTFWYIEDLILMKRLKKAREVLESVLEKANHLGLYSEEIDEKSGDFLGNFPQALSHLGVIRVAPKLEEALLLEHHHHHH
MEQGAATADKEDFNARGKPTLFQLSFPLLLHSLLSFFVNLADTAIISAYSAEAAAAVAVAKQVMMIAFELSGLVGIGAVIVISRHLGRGEVEAARQVVAVALLTNTLVGLALGLSLMVAGPLVLEQLAGSTSLNDEAGLYLNIVAVGMVFNGFIAAGLACLRAFGHSRLILAFGVGVSAFYLLAEWVLILGVGPLPGMGVKGAALGTFSIRVMTTAILTPVLMWKLGLRFSFSDTVARFATARRMIAIALPSVTDYIAYSFYQIILLGLVARFGVEAVLGRTYTMLAMAFLIVVVMAISQSNEVLIGYRFGERRLEAATSQALRSASLAAAATTSIATLIWLASVPYIRLFTDNPAVIELCGSLLFLTIFIQPGFAFNTILFQSLRAVGDVRWPVFVSLTVTWGLGLSTAWFFCLFLNLGVTGVWLSLIIEETVKGSLFLHRWLSRGVRHEAG
MEQRLLNANERSTYGKNAAVKMRKAGRIPAVMYDRHGKSVPIDVDEREFMKLFKLVTESTIVTLNAAGKDYEVFIKDFQHDIVSDKIKHIDFYEVERGKTLRTKVKIRLEGSPEGVRHGGILETGITELELECLPKDLPARIIVDVSALDVNQSLHVRDIKLPEAVTVLTSDDITVAAIKFAAAESTTPAATEGEETEAAAAAPEPAAEDK
MEQTHLKYEQLKAILREMGSVLVAFSGGVDSTFLLRVAHGLLGDKAVAFTATSPTYPESEFREAVGLARSMGARQVVVESNELEIPGFAFNPRNRCYHCKKELFGLCGRTAAELGLAWVADGSNCDDLDDYRPGRAAAGELGVRSPLVEAGLTKADIRELSRELGLPTWDKQAFACLSSRFPYGTEITPERLRMVGACEEFLRENGFRVYRVRFHGDTARIETAPEEIPRLFDPSLRLRIAAFFREAGFAHVAVDLEGYRTGSMNTDAG
MEQTQQNHFTALFYKNVLLGILSMAAQSIFILADTFFIANGIGTEALAGLNIVLPLVNIINGLGWMFGVGGATLFSTTVAQKEIKKANQYFSLTIGLVFVIGRLFTLVSLIFSDQIIRGLQGTGVLFGLAKEYYMIYLSCSLLFILNNCLITFLRNDHNPRLATIAFVSGGIVNIILDYVFIYQFGWGMAGAAIATVMSPLTSLILITLHKWSPQRVLRFEKFKVKFQDVREIMSIGFSSFLNEFSSAFVMFLFNIVLLNLVGHVAISAYAIVANLNIIVIAIFTGIGQGAQPLLSRYYGLGETKVLRKFVKLSFITYLVAGFLFFLISQVFTGQIIEVFNSEGNDQLAQIARTAIRLYAISFLFTGLNFMGIYYFSAVRKPKMALMISSLRGFFLIVPVLFILVKLLGLTGVWLAMPVVEFVTFGLMLVGYLAYRNYLKKREAVT
MEQWDHFHNQQEDTDSCSESVKFDARSMTALLPPNPKNSPSLQEKLKSFKAALIALYLLVFAVLIPLIGIVAAQLLKWETKNCSVSSTNANDITQSLTGKGNDSEEEMRFQEVFMEHMSNMEKRIQHILDMEANLMDTEHFQNFSMTTDQRFNDILLQLSTLFSSVQGHGNAIDEISKSLISLNTTLLDLQLNIENLNGKIQENTFKQQEEISKLEERVYNVSAEIMAMKEEQVHLEQEIKGEVKVLNNITNDLRLKDWEHSQTLRNITLIQGPPGPPGEKGDRGPTGESGPRGFPGPIGPPGLKGDRGAIGFPGSRGLPGYAGRPGNSGPKGQKGEKGSGNTLTPFTKVRLVGGSGPHEGRVEILHSGQWGTICDDRWEVRVGQVVCRSLGYPGVQAVHKAAHFGQGTGPIWLNEVFCFGRESSIEECKIRQWGTRACSHSEDAGVTCTL
MEQYSEACIEACIDCMKACNHCFTKCLEESVQHHLSGCIRLDRECADICALAVKAMQTDSPFMKEICALCADICEACGTECGKHDHDHCQACAKACFTCAEQCRSMAALEHHHHHH
MERAVPLAVPLGQTEVFQALQRLHMTIFSQSVSPCGKFLAAGNNYGQIAIFSLSSALSSEAKEESKKPVVTFQAHDGPVYSMVSTDRHLLSAGDGEVKAWLWAEMLKKGCKELWRRQPPYRTSLEVPEINALLLVPKENSLILAGGDCQLHTMDLETGTFTRVLRGHTDYIHCLALRERSPEVLSGGEDGAVRLWDLRTAKEVQTIEVYKHEECSRPHNGRWIGCLATDSDWMVCGGGPALTLWHLRSSTPTTIFPIRAPQKHVTFYQDLILSAGQGRCVNQWQLSGELKAQVPGSSPGLLSLSLNQQPAAPECKVLTAAGNSCRVDVFTNLGYRAFSLSF
MERAVVQRARPLARRPLVTLLTAAALAASGLTALTSAARAADADLARNGGFESALDGWTCTAGTTVTSPVHGGTSALKATPAGADNARCSQTVSVKPDSPYTLSGYVRGTYVYLGASGTGTTDVSTWAQSAPDWQQLTTTFRTGPSTTRVTIYTHGWYGTGAYHADDISLTGPGGETQQPPAVPGGLKTGSVTSSAVALSWSPVPGATGYAVYRDGAKVSTVTGTSTTVTGLTPSTAYSFQVTAVNDAGESARSATVTATTAQRPDDGGGSSDLPAHALVGYLHASFANGSGYTRMADVPDSWDVIDLAFGEPTSVTSGDIRFERCPVAECPNVESDAEFKAAIKAKQAAGKKVLISIGGQNGQVQLTSTAARDKFVSSVSAIIDEYGLDGLDIDFEGHSLSLNADDTDFKNPKTPVIVNLVSAVKTLKAKYGDGFVLTMAPETFFVQLGYQYYGTGKWGGQDPRAGAYLPVIHALRDDLTLLHVQDYNSGSIMGLDNQYHSMGGADFHIAMTDMLLTGFPVAGDANNVFPPLRPDQVAIGMPASTQAGNGHVSPAEVTKALNCLTKKTDCGSYATHGTWPDLRGLMTWSINWDRYSNWEFQKNFDAYFG

Protein production, not failed:
MEPITQAFAQQFSREWIDAWNAHDLDAILSHYADGFEMSSPMIVQIAGEPSGRLRGKEQVGAYWREALRMIPDLHFEWIATLAGVDSVAIHYRGAKGRLALEVFHFGPDRRVVKALAHYAG
MEPKDTTTNDAFKGFTNTACPFLPCHKGVKREFNCLFCYCPLIAYECPGPYQVYTDKNGLTRKDCTNCTLPHDGYLASWNFIQKWLERPVIWSGAAQTTPPTRRPGRAPGDGDEELEHHHHHH
MEPSGGEQEPGAVRFLDLPWEDVLLPHVLNRVPLRQLLRLQRVSRAFRSLVQLHLAGLRRFDAAQVGPQIPRAALARLLRDAEGLQELALAPCHEWLSDEDLVPVLARNPQLRSVALGGCGQLSRRALGALAEGCPRLQRLSLAHCDWVDGLALRGLADRCPALEELDLTACRQLKDEAIVYLAQRRGAGLRSLSLAVNANVGDAAVQELARNCPELHHLDLTGCLRVGSDGVRTLAEYCPVLRSLRVRHCHHVAESSLSRLRKRGVDIDVEPPLHQALVLLQDMAGFAPFVNLQV
MEQQHPTIHTLKIETEFFKAVKERRKTFEIRKNDRNFQVGDILILEEYMNGMYLDDECEAEVIYITDYAQREGYVVLGIELH
MERIEAGMSVMTLKKQTYRVIAVINQGQELLVRAHEPETADIEIIPVTTVVQVTEQNSTGDAAVALDTVTVVGERYVDDIVATLTTLRVGMAVLLQRESGNQYDDNAISVWTLQHAKLGYIARYQNQPYATLMDQGQRLYGIVTVLDQQKQHLELMLWRTTAVPSPIEALQIRQRLAKPRTNLGAVPTHSLQTPLGTIVMMCNGHPIKYQQVPLSPWLTPADELHVTKRYLLTPDWSQVPPDSLITCQVTAKADVVQRWQNEHISAAVLTNASSFYVVGISAQTKTGLNDNLVDDAAQPAVIYRVGQVSAHMQAGFMVSWAPFGDPRVQPALKLALHFSSQPLVPYHPVTPSRTNATFTQQELAALLVSALPNYQGGQRLEPSVTTITVEKLRQTLGDQTYHALANYQRHVQLVAGSTEGVNETLLQALIHAVTYHELTTMHYYQPTVGMVDQVIYPIQLFSTTTKDEDDAQLVGCLALYNYETFEIQQVPLTAIARIAIIADPEHPQTTPETESPDWLRIFLHGWNDDFLEHHHHHH
MERIETIPTDKEHLSQDEVIRLASTPCSAPALKRAFLFSCLTALRKSDIKKLTWEEIQPYGSDGVMYVTTRMQKTKDIVHNPISEEALELIGYSPDKRGKVFPDFKDSMTQAPLKNWLKDAGITKHISYHCSRHSFACLQLDAGTSIAVVQRYLGHKNVATTEVYAKISDAQKRASVGLEHHHHHH
